The values that follow come from publication PMC7700883.

Assay [1] concerns the target ubiquitin aminomethylcoumarin (UniProt P0CG48).
Assay [2] addresses GST-tagged ChlaDUB2_(58–339) (C282A) (Chlamydia trachomatis L2) (UniProt B0B999). As to the kind of experiment: BLI.
Assay [3] addresses GST-tagged ChlaDUB1_(130–401) (C345A) (Chlamydia trachomatis L2) (UniProt B0B9A0). The assay can be described thus: BLI.

In turn, “ChlaDUB2_(58–339) W92A (from UniProt B0B999 58-339) (domain or fragment)” registered an attenuation of Ub-AMC hydrolysis activity against wild type ChlaDUB2(58-339) in assay [1] of 50%. Regarding “Lys63-linked diubiquitin (from UniProt P0CG48 1-76) (complex)”, the Kd in assay [2] was determined as 88.9 µM; in assay [3] it was 117 µM.
